# T1: EC3-deleted human CDH6 (EC3 deletion mutant, on cells) (human, UniProt P55285 54-790)
# T1 construct: Full-length human CDH6 lacking EC3; Cloned in p3xFLAG-CMV-9; also called EC3-deleted hCDH6
# T1 sequence: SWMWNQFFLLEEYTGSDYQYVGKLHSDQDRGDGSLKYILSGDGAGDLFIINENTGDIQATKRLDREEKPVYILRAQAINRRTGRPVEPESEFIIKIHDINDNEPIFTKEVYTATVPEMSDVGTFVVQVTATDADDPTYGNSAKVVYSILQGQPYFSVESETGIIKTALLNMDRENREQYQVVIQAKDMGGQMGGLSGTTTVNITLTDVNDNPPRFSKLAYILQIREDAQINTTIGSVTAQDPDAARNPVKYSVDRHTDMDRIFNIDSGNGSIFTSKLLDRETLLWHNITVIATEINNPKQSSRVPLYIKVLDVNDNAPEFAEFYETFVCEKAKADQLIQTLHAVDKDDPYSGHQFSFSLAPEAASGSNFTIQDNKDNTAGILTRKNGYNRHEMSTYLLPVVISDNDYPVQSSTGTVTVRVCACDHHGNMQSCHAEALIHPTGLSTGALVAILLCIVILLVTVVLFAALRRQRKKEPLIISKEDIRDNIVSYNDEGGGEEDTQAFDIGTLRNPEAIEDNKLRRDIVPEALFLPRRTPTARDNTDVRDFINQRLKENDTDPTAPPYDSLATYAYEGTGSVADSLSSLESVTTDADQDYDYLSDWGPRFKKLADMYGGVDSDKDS
# T2: human CDH6 (full-length, on cells) (human, UniProt P55285 54-790)
# T2 construct: also called hCDH6; full-length hCDH6
# T2 sequence: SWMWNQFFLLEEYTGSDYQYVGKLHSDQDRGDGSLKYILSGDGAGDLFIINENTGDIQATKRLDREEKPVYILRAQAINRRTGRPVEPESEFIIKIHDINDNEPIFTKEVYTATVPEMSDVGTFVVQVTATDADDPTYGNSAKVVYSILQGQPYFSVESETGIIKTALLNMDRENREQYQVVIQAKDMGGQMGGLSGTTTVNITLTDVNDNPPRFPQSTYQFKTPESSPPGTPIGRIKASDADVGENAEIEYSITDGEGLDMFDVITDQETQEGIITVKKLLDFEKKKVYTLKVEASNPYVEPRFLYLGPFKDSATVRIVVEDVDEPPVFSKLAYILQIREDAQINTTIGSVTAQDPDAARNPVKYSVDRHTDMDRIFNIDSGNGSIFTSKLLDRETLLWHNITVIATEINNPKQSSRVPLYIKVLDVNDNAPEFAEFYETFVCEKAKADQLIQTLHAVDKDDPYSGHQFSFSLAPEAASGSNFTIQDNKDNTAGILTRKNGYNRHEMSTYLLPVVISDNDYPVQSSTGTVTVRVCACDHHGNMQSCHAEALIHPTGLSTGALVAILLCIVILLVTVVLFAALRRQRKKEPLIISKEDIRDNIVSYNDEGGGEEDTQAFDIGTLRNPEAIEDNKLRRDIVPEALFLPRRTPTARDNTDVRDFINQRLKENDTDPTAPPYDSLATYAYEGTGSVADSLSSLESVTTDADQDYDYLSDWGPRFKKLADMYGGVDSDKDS
# Columns and labels:
# [1] = biological target: T1, EC3-deleted human CDH6 (EC3 deletion …); assay: flow cytometry, 293α cells transiently expressing EC3-deleted hCDH6 (open) against untransfected cells (shaded), anti-rat IgG-FITC [4]
# Procedure: The cells were cultured overnight under conditions of 37° C. and 5% CO₂, treated with TrypLE Express (Thermo Fisher Scientific Inc.), and thereafter, a cell suspension was prepared. […] Thereafter, the cells were suspended by the addition of the anti-CDH6 monoclonal antibody (clone No: rG019), which had been prepared in Example 1)-7, or rat IgG control (R&D Systems, Inc.) (final concentration: 20 nM). The cells were left standing at 4° C. for 1 hour. The cells were washed twice with PBS supplemented with 5% FBS, and then suspended by the addition of Anti-Rat IgG (whole molecule)-FITC antibody produced in rabbit (Sigma-Aldrich Co. LLC) that had been 50-fold diluted with PBS supplemented with 5% FBS. The cells were left standing at 4° C. for 1 hour. The cells were washed twice with PBS supplemented with 5% FBS, followed by detection using a flow cytometer (Canto II; BD Biosciences). The data was analyzed using FlowJo (TreeStar, Inc.). In the histograms of FIGS. 2-1 to 2-2, the abscissa depicts FITC fluorescence intensity indicating the amount of the antibody bound, and the ordinate depicts cell count. […] Fluorescence intensity is enhanced when the antibody binds to full-length hCDH6 or each EC domain deletion mutant on the surface of cells.
# [2] = biological target: T2, human CDH6 (full-length, on cells); assay: flow cytometry, 293T cells transiently transfected with pcDNA3.1-hCDH6 (open) against untransfected 293T cells (shaded), antibody 10 ng/mL, anti-rat IgG-FITC
# Procedure: The human CDH6-binding activity of the rat anti-CDH6 antibody produced in Example 1)-7 was evaluated by flow cytometry. […] The cells were cultured overnight under conditions of 37° C. and 5% C02, treated with TrypLE Express (Thermo Fisher Scientific Inc.), and thereafter, a cell suspension was prepared. […] Thereafter, the cells were suspended by the addition of the rat anti-CDH6 monoclonal antibody (clone No: rG019), which had been prepared in Example 1)-7, or rat IgG control (R&D Systems, Inc.) (final concentration: 10 ng/mL). The cells were left standing at 4° C. for 1 hour. The cells were washed twice with PBS supplemented with 5% FBS, and then suspended by the addition of Anti-Rat IgG (whole molecule)-FITC antibody produced in rabbit (Sigma-Aldrich Co. LLC) that had been 50-fold diluted with PBS supplemented with 5% FBS. The cells were left standing at 4° C. for 1 hour. The cells were washed twice with PBS supplemented with 5% FBS, followed by detection using a flow cytometer (FC500; Beckman Coulter, Inc.). The data was analyzed using FlowJo (TreeStar, Inc.). In the histogram of FIG. 1, the abscissa depicts FITC fluorescence intensity indicating the amount of the antibody bound, and the ordinate depicts a cell count. […] The rat IgG control binds to neither of the cells.
binder,measurement,setting,value
"rat anti-CDH6 monoclonal antibody rG019 (antibody, IgG2b, V domains shown, Rat antibody purified from hybridoma supernatant; also called rG019 antibody; clone rG019) VH: QVQLQQSGAELVKPGSSVKISCKASGYTFTRNFMHWIKQQPGNGLEWIGWIYCGDGETEYNQKFNGKATLTADRSSSTAYMELSRLTSEDSAVYFCARGVYGGFAGGYFDFWGQGVMVTVSS VL: DIQMTQSPSLLSASVGDRVTLNCKASQNIYKNLAWYQQKLGEGPKLLIYDANTLQTGIPSRFSGSGSGSDFTLTISSLQPEDVATYFCQQYYSGWAFGGVTNLELKRA",binding result,[1],no binding (tested: 20 nM)
same,binding result,[2],binds

# Reference: patent US20220016257A1 (Daiichi Sankyo, published 2022)
